Measurements reported in FireProtDB (doi:10.1021/bi060848l).

B1: Camphor 5-monooxygenase, P00183 (parent)
chain: MTTETIQSNANLAPLPPHVPEHLVFDFDMYNPSNLSAGVQEAWAVLQESNVPDLVWTRCNGGHWIATRGQLIREAYEDYRHFSSECPFIPREAGEAYDFIPTSMDPPEQRQFRALANQVVGMPVVDKLENRIQELACSLIESLRPQGQCNFTEDYAEPFPIRIFMLLAGLPEEDIPHLKYLTDQMTRPDGSMTFAEAKEALYDYLIPIIEQRRQKPGTDAISIVANGQVNGRPITSDEAKRMCGLLLVGGLDTVVNFLSFSMEFLAKSPEHRQELIERPERIPAACEELLRRFSLVADGRILTSDYEFHGVQLKKGDQILLPQMLSGLDERENACPMHVDFSRQKVSHTTFGHGSHLCLGQHLARREIIVTLKEWLTRIPDFSIAPGAQIQHKSGIVSGVQALPLVWDPATTKAV

Variants of: B1
Settings: Pseudomonas putida; pH 7.4; Thermal; DSC; Tris 50 mM; KCl 100 mM; reversible: Yes; structure 2CPP; whole UniProt chain shown

Variant	Tm [°C]	change of melting temperature, mutant - wild type (higher = more stable) [°C]
T102V	63.5	-1.8
